In paper PMC8184503 (iScience, 2021) one finds binding result and IC50 data, which are given here for two molecules.

Primed or numbered codes have the meaning given here. Where no end group is shown, it is not given here. FITC′ = fluorescein isothiocyanate

This assay deals with T1, His-tagged β-cat (ARM domain, aa 134-668) (UniProt P35222 134-668).
T1 sequence (looked up): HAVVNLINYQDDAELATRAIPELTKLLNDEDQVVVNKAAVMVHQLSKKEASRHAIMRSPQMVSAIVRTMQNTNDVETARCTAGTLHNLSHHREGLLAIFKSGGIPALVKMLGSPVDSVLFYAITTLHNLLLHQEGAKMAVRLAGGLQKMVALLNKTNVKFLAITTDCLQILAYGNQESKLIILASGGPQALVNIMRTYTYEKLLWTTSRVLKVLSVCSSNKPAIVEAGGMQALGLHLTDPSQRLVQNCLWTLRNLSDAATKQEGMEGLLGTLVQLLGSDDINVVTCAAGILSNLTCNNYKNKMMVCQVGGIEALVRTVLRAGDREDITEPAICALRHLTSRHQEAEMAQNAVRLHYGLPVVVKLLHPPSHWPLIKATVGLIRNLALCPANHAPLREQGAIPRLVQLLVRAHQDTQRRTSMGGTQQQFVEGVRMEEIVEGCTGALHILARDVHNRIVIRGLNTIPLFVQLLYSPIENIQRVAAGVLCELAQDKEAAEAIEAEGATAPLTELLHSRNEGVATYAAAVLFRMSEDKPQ
Put plainly: SPR.

B1: GST-tagged TCF4 N-terminal domain (aa 1-55) (domain or fragment, UniProt Q9NQB0 1-55, looked up)
chain: MPQLNGGGGDDLGANDELISFKDEGEQEEKSSENSSAERDLADVKSSLVNESETN
Turning to B1, the binding result is listed as “binds”.
GGGDDLGANDELISFKDEGEQEEKSSENSSAERDLADVKSSLVNE-{FITC′} [C-terminal FITC-labeled TCF4 peptide (aa 7-51)] gave an IC50 of 29 nM.
